The labels stand for the following.
B1: Ferrochelatase, mitochondrial (Homo sapiens), P22830 (parent)
chain: MRSLGANMAAALRAAGVLLRDPLASSSWRVCQPWRWKSGAAAAAVTTETAQHAQGAKPQVQPQKRKPKTGILMLNMGGPETLGDVHDFLLRLFLDRDLMTLPIQNKLAPFIAKRRTPKIQEQYRRIGGGSPIKIWTSKQGEGMVKLLDELSPNTAPHKYYIGFRYVHPLTEEAIEEMERDGLERAIAFTQYPQYSCSTTGSSLNAIYRYYNQVGRKPTMKWSTIDRWPTHHLLIQCFADHILKELDHFPLEKRSEVVILFSAHSLPMSVVNRGDPYPQEVSATVQKVMERLEYCNPYRLVWQSKVGPMPWLGPQTDESIKGLCERGRKNILLVPIAFTSDHIETLYELDIEYSQVLAKECGVENIRRAESLNGNPLFSKALADLVHSHIQSNELCSKQLTLSCPLCVNPVCRETKSFFTSQQL

These results are taken from IntAct's records for PubMed 27599036.

In the experiment the parent is B1. As to conditions: with pgrc1_human PGRMC1, O00264.
Sequence of pgrc1_human PGRMC1, O00264 (O00264 whole entry): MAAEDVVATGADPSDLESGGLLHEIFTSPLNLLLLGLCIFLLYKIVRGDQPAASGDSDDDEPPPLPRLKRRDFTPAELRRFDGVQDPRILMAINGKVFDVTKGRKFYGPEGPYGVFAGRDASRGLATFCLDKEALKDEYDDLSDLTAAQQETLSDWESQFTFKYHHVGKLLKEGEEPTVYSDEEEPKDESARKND
Take F110A: the “effect of a mutation on the interaction” value is “increasing interaction strength”.

On to E343K, for which the “effect of a mutation on the interaction” value was “disrupting interaction strength”.
